Patent publication US20240182536A1 (MURAL ONCOLOGY, published 2024)
Residue numbers refer to the chain shown, from its start. Names and notes keep the numbering of the source.

T1: IL-18 receptors on HEK-Blue IL-18 reporter cells (UniProt Q13478 19-541; O95256 20-599, limits assumed)
T1 sequence (looked up) 1: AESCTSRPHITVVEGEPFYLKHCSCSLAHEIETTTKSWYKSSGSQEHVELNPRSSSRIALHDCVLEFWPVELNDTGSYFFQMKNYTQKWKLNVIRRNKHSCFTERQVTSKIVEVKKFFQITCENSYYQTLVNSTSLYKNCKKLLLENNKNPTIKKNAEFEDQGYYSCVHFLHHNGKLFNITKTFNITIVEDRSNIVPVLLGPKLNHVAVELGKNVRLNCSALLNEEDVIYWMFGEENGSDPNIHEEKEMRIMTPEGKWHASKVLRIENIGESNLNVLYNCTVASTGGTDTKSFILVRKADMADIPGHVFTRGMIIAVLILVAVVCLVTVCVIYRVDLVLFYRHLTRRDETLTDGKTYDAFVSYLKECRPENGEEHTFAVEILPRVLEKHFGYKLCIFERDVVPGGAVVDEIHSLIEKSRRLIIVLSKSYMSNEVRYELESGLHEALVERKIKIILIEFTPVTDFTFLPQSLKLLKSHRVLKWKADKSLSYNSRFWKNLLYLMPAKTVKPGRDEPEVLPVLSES
T1 sequence (looked up) 2: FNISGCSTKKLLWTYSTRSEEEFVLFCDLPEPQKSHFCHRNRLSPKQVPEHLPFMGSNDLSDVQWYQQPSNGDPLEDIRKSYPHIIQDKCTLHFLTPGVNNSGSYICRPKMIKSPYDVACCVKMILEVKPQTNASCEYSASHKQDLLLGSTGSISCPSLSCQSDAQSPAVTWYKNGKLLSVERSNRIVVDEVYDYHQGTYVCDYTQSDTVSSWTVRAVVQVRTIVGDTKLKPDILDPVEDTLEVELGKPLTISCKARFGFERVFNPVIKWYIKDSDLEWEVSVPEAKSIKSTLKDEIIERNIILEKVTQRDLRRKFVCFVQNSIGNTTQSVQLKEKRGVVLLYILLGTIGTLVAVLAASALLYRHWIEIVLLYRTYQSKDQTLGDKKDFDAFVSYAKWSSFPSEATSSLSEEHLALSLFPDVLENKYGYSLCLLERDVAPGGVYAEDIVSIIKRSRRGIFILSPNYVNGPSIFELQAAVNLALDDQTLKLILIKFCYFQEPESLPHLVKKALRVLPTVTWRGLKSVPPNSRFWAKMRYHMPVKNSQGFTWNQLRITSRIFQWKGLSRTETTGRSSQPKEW

T2: human IL-18 binding protein (human, UniProt O95998 31-194)
T2 sequence (looked up): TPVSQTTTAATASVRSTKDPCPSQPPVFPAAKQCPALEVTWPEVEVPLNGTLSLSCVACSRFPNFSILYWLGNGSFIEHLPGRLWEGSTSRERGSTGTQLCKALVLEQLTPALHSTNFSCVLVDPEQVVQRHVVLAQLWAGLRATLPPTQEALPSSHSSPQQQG

B1: yeast display IL-18 variant K53N, S55I (ligand)
chain: YFGKLESKLSVIRNLNDQVLFIDQGNRPLFEDMTDSDMRDNAPRTIFIISMYNDIQPRGMAVTISVKSEKISTLSSENKIISFKEMNPPDNIKDTKSDIIFFQRSVPGHDNKMQFESSSYEGYFLASEKERDLFKLILKKEDELGDRSIMFTVQNED
B2: yeast display IL-18 variant K53W, S55A (ligand)
chain: B1 chain with N53W, I55A
B3: yeast display IL-18 variant K53H, S55V (ligand)
chain: B1 chain with N53H, I55V
B4: yeast display IL-18 variant K53N, S55M, R104S, P107A (ligand)
chain: B1 chain with I55M, R104S, P107A
B5: yeast display IL-18 variant L5W, S7Y, K53H, S55M (ligand)
chain: B1 chain with L5W, S7Y, N53H, I55M
B6: yeast display IL-18 variant K53Q, D54N, S55M, Q56H (ligand)
chain: B1 chain with N53Q, D54N, I55M, Q56H
B7: yeast display IL-18 variant K53S, S55F, R104K, H109Y (ligand)
chain: B1 chain with N53S, I55F, R104K, H109Y
B8: yeast display IL-18 variant K53Y, S55Y (ligand)
chain: B1 chain with N53Y, I55Y

What was measured:
[1] = target: T1, IL-18 receptors on HEK-Blue IL-18 …; assay: cell-based or functional assay
[2] = target: T2, human IL-18 binding protein; assay: cell-based or functional assay

Binder	HEK-Blue activity, No BP, DF-10000 [1]	HEK-Blue activity, No BP, DF-100,000 [1]	HEK-Blue activity, No BP, DF-1,000,000 [1]	HEK-Blue activity, +100 nM BP, DF-10000 [2]	HEK-Blue activity, +100 nM BP, DF-100,000 [2]	HEK-Blue activity, +100 nM BP, DF-1,000,000 [2]	Ratio (-BP/+BP), DF-10000 [2]	Ratio (-BP/+BP), DF-100,000 [2]	Ratio (-BP/+BP), DF-1,000,000 [2]
B1	0.32	0.11	0.09	0.29	0.11	0.09	1.1	1	0.99
B2	0.28	0.13	0.11	0.31	0.16	0.13	0.89	0.84	0.84
B3	1.6	0.94	0.33	1.05	0.34	0.14	1.53	2.79	2.31
B4	0.8	0.24	0.12	0.15	0.12	0.11	5.37	1.93	1.08
B5	0.5	0.16	0.16	0.12	0.12	0.13	4.04	1.41	1.24
B6	0.46	0.13	0.09	0.21	0.11	0.09	2.21	1.16	1.06
B7	0.43	0.11	0.09	0.14	0.09	0.09	3.08	1.18	0.95
B8	0.38	0.17	0.12	0.24	0.14	0.21	1.57	1.21	0.57
